Test results taken from US20210268070A1, “Use of Immunomodulators to Control Infection and Stimulate Healing in Normal and Diabetic Wounds” (priority 2018, published 2021).

Columns and labels:
[1] = system: diabetic uninfected wounds; experiment: Wound healing in diabetic uninfected wounds; assay type: in vivo, db/db mice; conditions: FIG. 14
From the text: FIG. 14 illustrates CCL3 enhances wound healing in diabetic uninfected wounds.
(§1) As discussed above immunomodulatory therapies enhance infection control in both normal and diabetic models. FIGS. 11A-11C illustrate that CCL3 increases infection control (11A) increases collagen deposition (11B) and enhances wound healing (11C) in diabetic wounds. Immunomodulators may also be used to enhance wound healing in uninfected diabetic wounds.
(§2) Implant surgery and wound surgery and surgical site infection are performed according to the following method. On the day of surgery, all mice are anesthetized by an intraperitoneal injection of a ketamine/xylazine mixture (90 mg/kg ketamine+5 mg/kg xylazine for mice). The back of the animals is shaved using an electric shave and scrubbed with alcohol swabs 3 times, a topical antiseptic solution (Hibiclens; chlorhexidine gluconate) is applied to the skin. The surgical procedures are performed with sterile instruments, sterile surgical gloves, and aseptic techniques as follows. For wound surgical procedure, a sterile biopsy punch (5-7 mm diameter) is used to punch through the full thickness of the back skin below the shoulder blades. Four 5-7 mm skin wounds are made on the back of each mouse. Wounds placed in this area cannot be reached by the animals and therefore are protected from self-licking. […]

diabetic wounds = experiment: Collagen deposition and wound healing in infected diabetic wounds; assay type: in vivo, db/db mice; conditions: P. aeruginosa PA103 10^3 infected, compared to PBS
From the text: FIGS. 11A-11C illustrate that CCL3 increases infection control (11A), collagen deposition (11B) and enhances wound healing (11C) in diabetic wounds. P. aeruginosa PA103 10^3N=4; Significance determined as compared to PBS *<0.05, **p<0.01, ***p<0.001.
as §1
as §2, with “mouse.” for “mouse. Wounds placed in this area cannot be reached by the animals and therefore are protected from self-licking.”

B1: Chemokine (C-C motif) ligand 3 (protein, listed as Homo sapiens)
chain: MQVSTAALAVLLCTMALCNQFSASLAADTPTACCFSYTSRQIPQNFIADYFETSSQCSKPGVIFLTKRSRQVCADPSEEWVQKYVSDLELSA
notes: class 1 immunomodulator
wound healing in diabetic uninfected wounds [1]: enhances
collagen deposition in diabetic wounds (diabetic wounds; FIG. 11B): increases
wound healing in diabetic wounds (diabetic wounds; FIG. 11C): enhances
